For test [1], the system named is IgE+ mMCP-1+ mast cells. Briefly: Localization of gavaged HRF inhibitors in jejunum by confocal microscopy. The test is classed as in vivo, mouse. As to conditions: using anti-His tag, data not shown. On the procedure: HRF multimers in the jejunum of non-sensitized/OVA challenged (Cont, n=6) or OVA-sensitized/OVA-challenged (OVA, n=5) mice were quantified by a newly developed ELISA (FIG. 3A, FIG. 3C). HRF was also measured by ELISA (FIG. 3B). HRF dimer and monomer were quantified by western blotting in control (Cont) and food allergic mice treated without (OVA) or with GST (GST) or GST-N19 (N19) (n=5 for each group) (FIG. 3D). Allergic diarrhea was induced by 6 challenges. On the day of 7th challenge, the mice were gavaged with 0.1 mg of GST or GST-N19 (FIG. 3E). One hour later, mice were sacrificed without OVA challenge. Jejunum tissues were stained for GST, IgE, and mMCP-1 before confocal microscopy (n=5 for GST and n=6 for GST-N19). Arrows indicate cells positive for GST or GST-N19 as well as IgE and mMCP-1. […] Bars=50 μm.
Jejunum biopsy was fixed in 4% paraformaldehyde at 4° C., washed in 10-20% sucrose in phosphate buffered saline, and embedded in O.C.T. compound (Sakura Finetek, Japan). Cyrosections were made in 6 μm and blocked with 2% skim milk. Immunostaining was performed with anti-HRF (rabbit polyclonal FL-172), anti-GST (rabbit polyclonal Z-5) (Santa Cruz Biotechnology), anti-IgE (clone RME-1 from Biolegend and clone R35-72 from BD Biosciences), anti-mMCP1 (Catalog #AF5146, R&D Systems), anti-CD45 (clone 30-F11), anti-CD63 (clone NVG-2) (Biolegend), and anti-Siglec F (clone E50-2440, BD Biosciences) as primary antibodies, and anti-Rabbit Alexa Fluor 647 (Catalog #A21245), anti-Rat Alexa Fluor 568 (Catalog #A11077), and anti-Sheep Alexa Fluor 555 (Catalog #A11015) (Thermo Fisher Scientific) as secondary antibodies. Coverslips were mounted with Prolong Gold with DAPI (Thermo Fisher Scientific) and fluorescence was observed under Leica TCS SP2 confocal microscopy (Leica) and Nuance Multi spectral Imaging System (PerkinElmer).
Applicant next tested whether HRF inhibitors target mucosal mast cells. To this end, mice with allergic diarrhea were i.g. gavaged with GST-N19 or GST, and their location was identified 1 h after their gavage.

Test [2] concerns OVA-induced allergic diarrhea. In words: Food allergy experiments in WT and FceRIa-/-, FcgRIIB-/-, Enpp3-/- mice. The note with it: WT and mutant mice, via FcεRI. The test is classed as in vivo, mouse. An excerpt: FIGS. 10A-10C show HRF-2CA suppresses allergic diarrhea via FcεRI. WT and mutant mice were subjected to food allergy experiments as described in the FIG. 1 legend. FceRIa^−/− (n=4-5 each for group with sensitization and n=3 each for unsensitized group (Cont; no diarrhea was observed))(FIG. 10A), FcgRIIB^−/− (n=9-10 each for groups with sensitization and n=4-5 each for unsensitized groups (Cont; no diarrhea was observed); pooled data of two independent experiments) (FIG. 10B), and Enpp3^−/− (n=9-10 each for groups with sensitization and n=7 each for unsensitized groups (Cont; no diarrhea was observed); pooled data of two independent experiments) (FIG. 10C) mice along with WT mice were used. *, ***: p<0.05, p<0.001 by Student's t-test.
BALB/c mice were bred in the animal facility of RIKEN IMS. Frozen zygotes of FceRIa^−/− mice were donated by Takashi Saito (RIKEN IMS) and bred at RIKEN IMS. FcgRIIB^−/− mice provided by Toshiyuki Takai (Tohoku University) were also bred at RIKEN IMS. Food allergy experiments with Enpp3^−/− mice were conducted at Osaka University. All genetically modified mice were backcrossed to BALB/c background for more than ten generations.
Mice were i.p. sensitized with OVA (50 μg/mouse) plus alum on days 0 and 14. […] The development of diarrhea was monitored for 90 min after OVA challenge. […]

Results on one molecule are retold here after US20220241369A1, “COMPOSITIONS AND METHODS OF MODULATING INFLAMMATION” (La Jolla Institute for Allergy and Immunology, priority 2018, published 2022).

B1: HRF-2CA-His6, a monomeric mutant of mouse HRF (protein)
chain: MIIYRDLISHDELFSDIYKIREIADGLALEVEGKMVSRTEGAIDDSLIGGNASAEGPEGEGTESTVVTGVDIVMNHHLQETSFTKEAYKKYIKDYMKSLKGKLEEQKPERVKPFMTGAAEQIKHILANFNNYQFFIGENMNPDGMVALLDYREDGVTPFMIFFKDGLEMEKAHHHHHH
As for B1, the “IgE+ mMCP-1+ mast cells targeted by the His-tagged substance” value in test [1] worked out at 64.0±2.69%. In addition, in test [2], the allergic diarrhea entry is “suppresses”.
